The values below come from publication PMC10772735, “Characterization of erythroferrone oligomerization and its impact on BMP antagonism” (The Journal of Biological Chemistry, 2023).

Series [1] addresses BMP6 (UniProt P22004). Kind of series: SPR competition (BMP6 + ERFE over Alk3-Fc captured on protein A chip). Conditions: curve maximum near the ~300 s dotted line, RU is residual BMP6 binding to Alk3-Fc (lower RU = more competition by ERFE) …, read off a plot.
Series [2] has as its target Alk3-Fc ECD (Homo sapiens) (UniProt P36894). The conditions noted are these: cited from earlier work.
Series [3] has as its target T1, BMP6 (UniProt P22004 375-513).
T1 sequence (looked up): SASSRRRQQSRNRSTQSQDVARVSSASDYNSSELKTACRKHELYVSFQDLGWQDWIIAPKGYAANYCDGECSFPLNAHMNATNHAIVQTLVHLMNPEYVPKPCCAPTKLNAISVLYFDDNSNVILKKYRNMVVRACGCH
The series can be described thus: cell-based or functional assay.

Series [4] deals with the molecule itself. Kind of series: AUC; sedimentation velocity, ΔC1Q ERFE mutants, 0.5 mg/ml, 40,000 RPM, 20 °C, absorbance at 230 nm, never frozen protein after dialysis; oligomeric states assigned qualitatively from approximate masses.
Series [5] concerns the molecule itself. Kind of series: non-reducing SDS-PAGE; purified ERFE analysed by SDS-PAGE under reducing and nonreducing conditions; shows only disulfide-linked species.
A further series addresses T2, BMP6, P22004.
T2 chain: T1 sequence (looked up)
The series can be described thus: SPR competition (BMP6 + ERFE over Alk3-Fc captured on protein A chip). The conditions noted are these: chain shown with the change, curve maximum near the ~300 s dotted line, read off a plot.

In series [6] the target is T1, BMP6. Kind of series: cell-based or functional assay. The source holds these as a separate data set.
Another series concerns the target BMP2 (UniProt P12643 283-396). Kind of series: cell-based or functional assay.
A further series addresses T3, BMP7 (UniProt P18075 293-431).
T3 sequence (looked up): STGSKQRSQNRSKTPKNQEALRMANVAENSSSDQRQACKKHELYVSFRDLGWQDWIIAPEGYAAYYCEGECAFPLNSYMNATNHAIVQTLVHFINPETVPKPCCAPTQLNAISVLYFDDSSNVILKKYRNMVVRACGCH
Kind of series: cell-based or functional assay.

For a further series, the target named is T4, GDF5 (UniProt P43026 382-501).
T4 sequence (looked up): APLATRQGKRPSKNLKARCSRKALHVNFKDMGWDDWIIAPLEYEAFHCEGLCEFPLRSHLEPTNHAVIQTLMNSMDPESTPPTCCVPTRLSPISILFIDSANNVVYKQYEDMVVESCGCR
Kind of series: cell-based or functional assay.

Series [7] concerns the molecule itself. Kind of series: AUC; sedimentation velocity, full-length ERFE constructs, 0.5 mg/ml, 20,000 rpm, 20 °C, absorbance at 230 nm, freshly purified never frozen protein after dialysis (20 mM Hepes pH 7.5, 150 mM NaCl, 5 mM CaCl2); oligomeric states assigned qualitatively from approximate masses.
Series [8] concerns the target T1, BMP6. The series can be described thus: cell-based or functional assay. The source holds these as a separate data set.

Substitutions are numbered along the chain they refer to. Numbers in names are those of the source. Where “and” joins values, the source holds several entries; their conditions need not be identical. Equal values may be shown once. Read-outs that look alike come from different tables or passages of the source.

Sequence of BMP2 (P12643 283-396): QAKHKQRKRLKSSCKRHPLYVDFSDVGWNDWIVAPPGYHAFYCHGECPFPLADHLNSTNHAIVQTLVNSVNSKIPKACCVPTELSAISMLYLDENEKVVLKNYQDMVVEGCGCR
Sequence of Alk3-Fc ECD (Homo sapiens) (P36894 24-152): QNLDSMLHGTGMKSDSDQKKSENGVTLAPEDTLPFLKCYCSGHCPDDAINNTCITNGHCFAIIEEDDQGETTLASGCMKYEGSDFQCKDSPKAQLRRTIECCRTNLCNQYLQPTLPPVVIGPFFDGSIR

Consider “ΔC1Q ERFE (from UniProt Q4G0M1) CLR* (center PGP in the CLR to SSS); C155S; C157S”, for which the results for the response with BMP6 [1] (10 nM BMP6 + 80 nM CLR*Cys*ΔC1Q ERFE) and in the series with BMP6 [1] (10 nM BMP6 + 160 nM CLR*Cys*ΔC1Q ERFE) were 19 RU and 17 RU, respectively.

Turning to BMP6 (from UniProt P22004), in [2], the Kd (as a rule, the constant that tells how readily two partners part at equilibrium) is 62.5 nM.

B1: Cys∗ΔC1Q ERFE (domain or fragment, human, UniProt Q4G0M1 44-207, looked up)
chain: PPPGNELPRGPGESRAGPAARPPEPTAERAHSVDPRDAWMLFVRQSDKGVNGKKRSRGKAKKLKFGLPGPPGPPGPQGPPGPIIPPEALLKEFQLLLKGAVRQRERAEPEPSTSGPAGPVAASLAPVSATAGEDDDDVVGDVLALLAAPLAPGPRAPRVEAAFL
notes: erythroferrone (ERFE), human, stop codon at C208, Cys155 and Cys157 mutated to serines (C208 is not in the truncated chain); source: Expi293, transfected, purified; not shown: FLAG, N-terminal, kept
Regarding B1, in the series with BMP6 [3], the “IC50 of inhibition of 2.5 nM BMP6 signalling, luciferase reporter, BRITER cells” value (“IC50 of inhibition … BRITER cells” below) turned out to be 97 nM. The stoichiometry N (in general, the number of molecules, sites or subunits per partner or assembly) in series [4] amounted to 3.

B2: CLR∗ΔC1Q ERFE (domain or fragment)
chain: B1 chain with P74S, G75S, P76S, S112C, S114C
On to B2, for which the “IC50 of inhibition … BRITER cells” value with BMP6 [3] amounted to 27 nM. In [4], the “stoichiometry N” value was 2.

B3: ΔC1Q ERFE (domain or fragment, human, UniProt Q4G0M1 44-207, looked up)
chain: B1 chain with S112C, S114C
notes: erythroferrone (ERFE), human, construct from residue 44 with a stop codon introduced at C208, removing the entire C1Q domain; source: Expi293, transfected, purified; not shown: FLAG, N-terminal, kept
With B3, the “IC50 of inhibition … BRITER cells” value with BMP6 [3] turned out to be 7.8 nM. The “stoichiometry N” value was found to be 2 in series [5] and 3 in [4].

B4: CLR∗Cys∗ΔC1Q ERFE (domain or fragment)
chain: B1 chain with P74S, G75S, P76S
For the molecule B4, in the series with BMP6 [3], the “IC50 of inhibition … BRITER cells” value amounted to 290 nM.

B5: N-terminally flag-tagged hERFE (residues 44–354), WT erythroferrone, Q4G0M1 CLR* (center PGP in the CLR to SSS); C155S; C157S; C208S (protein)
chain: PPPGNELPRGPGESRAGPAARPPEPTAERAHSVDPRDAWMLFVRQSDKGVNGKKRSRGKAKKLKFGLPGPPGPSSSQGPPGPIIPPEALLKEFQLLLKGAVRQRERAEPEPSTSGPAGPVAASLAPVSATAGEDDDDVVGDVLALLAAPLAPGPRAPRVEAAFLSRLRRDALVERRALHELGVYYLPDAEGAFRRGPGLNLTSGQYRAPVAGFYALAATLHVALGEPPRRGPPRPRDHLRLLICIQSRCQRNASLEAIMGLESSSELFTISVNGVLYLQMGQWTSVFLDNASGCSLTVRSGSHFSAVLLGV
As to B5, the response with BMP6, P22004 (10 nM BMP6 + 5 nM CLR*Cys* ERFE, RU is residual BMP6 binding to Alk3-Fc (lower RU = more competition by ERFE), BMP6 …) was determined as 11 RU; in the series with BMP6, P22004 (10 nM BMP6 + 10 nM CLR*Cys* ERFE, RU is residual BMP6 binding to Alk3-Fc (lower RU = more competition by ERFE), BMP6 …) it was 8.7 RU; with BMP6, P22004 (10 nM BMP6 + 20 nM CLR*Cys* ERFE, RU is residual BMP6 binding to Alk3-Fc (lower RU = more competition by ERFE), BMP6 …), 6.2 RU; in the series with BMP6, P22004 (10 nM BMP6 + 40 nM CLR*Cys* ERFE, RU is residual BMP6 binding to Alk3-Fc (lower RU = more competition by ERFE), BMP6 …) it was 4 RU; with BMP6, P22004 (10 nM BMP6 + 80 nM CLR*Cys* ERFE, RU is residual BMP6 binding to Alk3-Fc (lower RU = more competition by ERFE), BMP6 …), 2.3 RU; with BMP6, P22004 (10 nM BMP6 + 160 nM CLR*Cys* ERFE, RU is residual BMP6 binding to Alk3-Fc (lower RU = more competition by ERFE) …) it was 1.2 RU.

B6: N-terminally flag-tagged hERFE (residues 44–354), WT erythroferrone (natural protein, human, UniProt Q4G0M1 44-354, looked up)
chain: B5 chain with S74P, S75G, S76P, S112C, S114C, S165C
notes: erythroferrone (ERFE, FAM132B), human, residues 44-354; By AUC a mixture of trimer, hexamer and a little high molecular weight species; also called WT ERFE; N-Flag ERFE; not shown: FLAG, N-terminal, kept
On to B6, for which, in the series with BMP6 [6], the “IC50 of ERFE inhibition of BMP6 (2.5 nM) signalling, BMP responsive luciferase assay (BRE promoter)” value is 5.2 nM. For the same molecule, the “IC50 of ERFE inhibition of BMP2 (2.5 nM) signalling, BMP responsive luciferase assay (BRE promoter)” value with BMP2 came to 170 nM. Besides, the “IC50 of ERFE inhibition of BMP7 (2.5 nM) signalling, BMP responsive luciferase assay (BRE promoter)” value with BMP7 was 8.9 nM. Also, the “IC50 of ERFE inhibition of GDF5 (2.5 nM) signalling, BMP responsive luciferase assay (BRE promoter)” value with GDF5 is 130 nM. Further, the “stoichiometry N” value is 2 in [5]; 3 and 6 in series [7].

B7: Cys∗ ERFE (natural protein, human, UniProt Q4G0M1 44-354, looked up)
chain: B5 chain with S74P, S75G, S76P
notes: erythroferrone (ERFE), human, residues 44-354, Cys155, 157 and 208 mutated to serines; source: some mutants αFlag resin first; not shown: FLAG, N-terminal, kept
As to B7, the “IC50 of inhibition … BRITER cells” value with BMP6 [3] turned out to be 8.7 nM. In series [7], the “stoichiometry N” value stood at 3.

B8: D90A ERFE (natural protein, human, UniProt Q4G0M1 44-354, looked up)
chain: B5 chain with D47A, S74P, S75G, S76P, S112C, S114C, S165C
Turning to B8, the “IC50 of inhibition … BRITER cells” value in the series with BMP6 [8] amounted to 13 nM.

B9: N94A ERFE (natural protein, human, UniProt Q4G0M1 44-354, looked up)
chain: B5 chain with N51A, S74P, S75G, S76P, S112C, S114C, S165C
For the molecule B9, the “IC50 of inhibition … BRITER cells” value with BMP6 [8] came out at 21 nM.
